Where two headings read alike, the source gives them in different places. Blank lines part the entries; values can stand above or below the binder they belong to.
Key:
[1] = target: T1, 4H492-bH; assay: two-hybrid library CCNG1;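 further: natural log of median RNA to DNA barcode read ratio; higher means stronger binding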
T1 chain: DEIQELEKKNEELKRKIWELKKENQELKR

[2] = target: T2, 4H741-bH; assay: two-hybrid library CCNG1;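 further: natural log of median RNA to DNA barcode read ratio; higher means stronger binding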
T2 chain: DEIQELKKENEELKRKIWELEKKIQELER

[3] = target: T3, 4H3777-AA; assay: two-hybrid library CCmax; details: mean of both orientations;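 further: natural log of median RNA to DNA barcode read ratio; higher means stronger binding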
T3 chain: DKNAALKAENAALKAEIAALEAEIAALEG

[4] = target: T4, 4H446-AA; assay: two-hybrid library CCmax; details: mean of both orientations;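 further: natural log of median RNA to DNA barcode read ratio; higher means stronger binding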
T4 chain: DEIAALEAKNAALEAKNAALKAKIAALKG

[5] = target: T5, 4H3915-AA; assay: two-hybrid library CCmax
T5 chain: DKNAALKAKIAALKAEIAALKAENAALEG

[6] = target: T6, 4H3449-AA; assay: two-hybrid library CCmax; details: mean of both orientations
T6 chain: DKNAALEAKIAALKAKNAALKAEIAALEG

[7] = target: T7, 4H63-AA; assay: two-hybrid library CCmax; details: mean of both orientations
T7 chain: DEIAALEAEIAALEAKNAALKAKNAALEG

[8] = target: T8, 4H341-AA; assay: two-hybrid library CCmax; details: mean of both orientations
T8 chain: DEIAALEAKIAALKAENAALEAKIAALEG

[9] = target: T9, 4H380-AA; assay: two-hybrid library CCmax; details: mean of both orientations
T9 chain: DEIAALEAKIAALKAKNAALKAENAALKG

[10] = target: T10, 4H3974-AA; assay: two-hybrid library CCmax; details: mean of both orientations
T10 chain: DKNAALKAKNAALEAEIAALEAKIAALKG

[11] = target: T11, 4H324-AA; assay: two-hybrid library CCmax; details: mean of both orientations
T11 chain: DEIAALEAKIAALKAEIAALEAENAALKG

[12] = target: T12, 4H3619-AA; assay: two-hybrid library CCmax; details: mean of both orientations
T12 chain: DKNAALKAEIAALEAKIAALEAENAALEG

[13] = target: T13, 4H432-AA; assay: two-hybrid library CCmax; details: mean of both orientations
T13 chain: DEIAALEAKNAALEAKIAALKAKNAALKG

[14] = target: T14, 4H3629-AA; assay: two-hybrid library CCmax; details: mean of both orientations
T14 chain: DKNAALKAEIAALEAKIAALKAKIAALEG

[15] = target: T15, 4H3094-AA; assay: two-hybrid library CCmax
T15 chain: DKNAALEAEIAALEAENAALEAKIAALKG

[16] = target: T16, 4H967-bN; assay: two-hybrid library CCNG1
T16 chain: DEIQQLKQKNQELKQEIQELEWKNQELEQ

[17] = target: T17, 4H687-bN; assay: two-hybrid library CCNG1
T17 chain: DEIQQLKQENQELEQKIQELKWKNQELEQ

[18] = target: T18, 4H883-bN; assay: two-hybrid library CCNG1
T18 chain: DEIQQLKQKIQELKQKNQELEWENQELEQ

[19] = target: T19, 4H607-bN; assay: two-hybrid library CCNG1
T19 chain: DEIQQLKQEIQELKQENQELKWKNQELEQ

[20] = target: T20, 4H454-bN; assay: two-hybrid library CCNG1
T20 chain: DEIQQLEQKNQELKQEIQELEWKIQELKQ

[21] = target: T21, 4H72-bN; assay: two-hybrid library CCNG1
T21 chain: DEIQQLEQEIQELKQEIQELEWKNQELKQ

[22] = target: T22, 4H953-bN; assay: two-hybrid library CCNG1
T22 chain: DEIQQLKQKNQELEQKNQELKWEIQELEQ

[23] = target: T23, 4H797-bN; assay: two-hybrid library CCNG1
T23 chain: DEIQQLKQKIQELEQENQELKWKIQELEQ

[24] = target: T24, 4H918-bN; assay: two-hybrid library CCNG1
T24 chain: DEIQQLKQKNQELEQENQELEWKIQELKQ

[25] = target: T25, 4H754-bN; assay: two-hybrid library CCNG1
T25 chain: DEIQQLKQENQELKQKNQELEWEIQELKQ

[26] = target: T26, 4H717-bN; assay: two-hybrid library CCNG1
T26 chain: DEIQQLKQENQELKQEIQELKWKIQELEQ

[27] = target: T27, 4H908-bN; assay: two-hybrid library CCNG1
T27 chain: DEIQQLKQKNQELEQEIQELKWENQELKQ

[28] = target: T28, 4H568-bN; assay: two-hybrid library CCNG1
T28 chain: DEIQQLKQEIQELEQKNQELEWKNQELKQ

[29] = target: T29, 4H607-bA; assay: two-hybrid library CCNG1
T29 chain: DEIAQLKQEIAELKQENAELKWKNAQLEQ

[30] = target: T30, 4H953-bA; assay: two-hybrid library CCNG1
T30 chain: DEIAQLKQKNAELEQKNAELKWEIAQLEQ

[31] = target: T31, 4H908-bA; assay: two-hybrid library CCNG1
T31 chain: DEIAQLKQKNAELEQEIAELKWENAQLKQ

[32] = target: T32, 4H918-bA; assay: two-hybrid library CCNG1
T32 chain: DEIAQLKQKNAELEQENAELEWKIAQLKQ

[33] = target: T33, 4H883-bA; assay: two-hybrid library CCNG1
T33 chain: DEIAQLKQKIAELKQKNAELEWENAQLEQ

[34] = target: T34, 4H454-bA; assay: two-hybrid library CCNG1
T34 chain: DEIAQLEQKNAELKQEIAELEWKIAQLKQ

[35] = target: T35, 4H72-bA; assay: two-hybrid library CCNG1
T35 chain: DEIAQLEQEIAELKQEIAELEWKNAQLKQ

[36] = target: T36, 4H754-bA; assay: two-hybrid library CCNG1
T36 chain: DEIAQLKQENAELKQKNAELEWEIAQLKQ

[37] = target: T37, 4H967-bA; assay: two-hybrid library CCNG1
T37 chain: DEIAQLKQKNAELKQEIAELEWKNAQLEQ

[38] = target: T38, 4H717-bA; assay: two-hybrid library CCNG1
T38 chain: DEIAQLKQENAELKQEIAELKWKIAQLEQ

[39] = target: T39, 4H687-bA; assay: two-hybrid library CCNG1
T39 chain: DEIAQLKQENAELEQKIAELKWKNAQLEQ

[40] = target: T40, 4H568-bA; assay: two-hybrid library CCNG1
T40 chain: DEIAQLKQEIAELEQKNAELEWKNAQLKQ

[41] = target: T41, 4H797-bA; assay: two-hybrid library CCNG1
T41 chain: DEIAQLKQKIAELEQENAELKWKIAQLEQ

[42] = target: T42, 4H2961-AA; assay: two-hybrid library CCmax; details: mean of both orientations
T42 chain: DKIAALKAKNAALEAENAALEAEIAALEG

[43] = target: T43, 4H3049-AA; assay: two-hybrid library CCmax; details: mean of both orientations
T43 chain: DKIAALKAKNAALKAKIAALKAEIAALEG

[44] = target: T44, 4H87-AA; assay: two-hybrid library CCmax; details: mean of both orientations
T44 chain: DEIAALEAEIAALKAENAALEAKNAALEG

[45] = target: T45, 4H510-AA; assay: two-hybrid library CCmax; details: mean of both orientations
T45 chain: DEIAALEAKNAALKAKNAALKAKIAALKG

[46] = target: T46, 4H816-AA; assay: two-hybrid library CCmax; details: mean of both orientations
T46 chain: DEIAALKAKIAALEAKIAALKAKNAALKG

[47] = target: T47, 4H775-AA; assay: two-hybrid library CCmax; details: mean of both orientations
T47 chain: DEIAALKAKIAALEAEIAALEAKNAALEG

[48] = target: T48, 4H3940-AA; assay: two-hybrid library CCmax
T48 chain: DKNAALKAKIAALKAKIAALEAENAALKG

[49] = target: T49, APC5009-AA; assay: two-hybrid library CCmax
T49 chain: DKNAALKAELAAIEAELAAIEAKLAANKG

[50] = target: T50, APC6088-AA; assay: two-hybrid library CCmax; details: mean of both orientations
T50 chain: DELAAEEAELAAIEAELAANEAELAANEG

[51] = target: T51, APC8516-AA; assay: two-hybrid library CCmax; details: mean of both orientations
T51 chain: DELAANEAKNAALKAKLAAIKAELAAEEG

[52] = target: T52, APC542-AA; assay: two-hybrid library CCmax; details: mean of both orientations
T52 chain: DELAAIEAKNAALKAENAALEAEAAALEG

[53] = target: T53, APC8401-AA; assay: two-hybrid library CCmax; details: mean of both orientations
T53 chain: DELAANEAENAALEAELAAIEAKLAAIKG

[54] = target: T54, APC9141-AA; assay: two-hybrid library CCmax; details: mean of both orientations
T54 chain: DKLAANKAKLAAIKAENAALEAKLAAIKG

[55] = target: T55, APC7524-AA; assay: two-hybrid library CCmax; details: mean of both orientations
T55 chain: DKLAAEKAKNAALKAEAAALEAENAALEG

[56] = target: T56, APC5531-AA; assay: two-hybrid library CCmax; details: mean of both orientations
T56 chain: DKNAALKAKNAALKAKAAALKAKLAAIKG

[57] = target: T57, APC9806-AA; assay: two-hybrid library CCmax; details: mean of both orientations
T57 chain: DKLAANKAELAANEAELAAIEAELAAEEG

[58] = target: T58, APC9182-AA; assay: two-hybrid library CCmax; details: mean of both orientations
T58 chain: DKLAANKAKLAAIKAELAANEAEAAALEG

[59] = target: T59, APC9291-AA; assay: two-hybrid library CCmax; details: mean of both orientations
T59 chain: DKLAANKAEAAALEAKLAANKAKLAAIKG

[60] = target: T60, 4H3595-AA; assay: two-hybrid library CCmax; details: mean of both orientations
T60 chain: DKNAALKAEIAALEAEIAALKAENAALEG

[61] = target: T61, 4H3969-AA; assay: two-hybrid library CCmax; details: mean of both orientations
T61 chain: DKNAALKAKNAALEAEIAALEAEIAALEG

[62] = target: T62, 4H464-AA; assay: two-hybrid library CCmax; details: mean of both orientations
T62 chain: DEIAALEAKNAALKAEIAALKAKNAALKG

[63] = target: T63, 4H3939-AA; assay: two-hybrid library CCmax; details: mean of both orientations
T63 chain: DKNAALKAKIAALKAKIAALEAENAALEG

[64] = target: T64, 4H3782-AA; assay: two-hybrid library CCmax; details: mean of both orientations
T64 chain: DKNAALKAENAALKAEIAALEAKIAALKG

[65] = target: T65, 4H3414-AA; assay: two-hybrid library CCmax
T65 chain: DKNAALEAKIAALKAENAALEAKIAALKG

[66] = target: T66, 4H483-AA; assay: two-hybrid library CCmax; details: mean of both orientations
T66 chain: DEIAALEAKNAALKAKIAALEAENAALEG

interaction score [1]: 0.6
interaction score [2]: -0.317
Binder: DEIQELEKKNEELKRKIWELKKENQELKR [4H492-bH]

interaction score [3]: -0.696
interaction score [4]: -0.811
interaction score [5]: -0.623
interaction score [6]: 2.52
interaction score [7]: -0.753
interaction score [8]: 1.64
interaction score [9]: 1.51
interaction score [10]: -0.861
interaction score [11]: -0.623
interaction score [12]: -1.6
interaction score [13]: 0.441
interaction score [14]: -0.24
interaction score [15]: -0.802
Binder: DKNAALEAEIAALEAENAALEAKIAALKG [4H3094-AA]

interaction score [16]: -0.354
interaction score [17]: 1.02
interaction score [18]: -0.143
interaction score [19]: 0.145
interaction score [20]: -0.79
interaction score [21]: 0.494
interaction score [22]: -1.26
interaction score [23]: -0.833
interaction score [24]: -0.834
interaction score [25]: -0.587
interaction score [26]: 0.0875
interaction score [27]: 0.201
interaction score [28]: 0.196
Binder: DEIQQLEQKNQELKQEIQELEWKIQELKQ [4H454-bN]

interaction score [29]: -0.773
interaction score [30]: 0.62
interaction score [31]: -0.182
interaction score [32]: -0.912
interaction score [33]: -0.0808
interaction score [34]: 1.86
interaction score [35]: -0.678
interaction score [36]: -0.711
interaction score [37]: -0.131
interaction score [38]: 0.262
interaction score [39]: 1.48
interaction score [40]: -0.589
interaction score [41]: -1.06
Binder: DEIAQLEQKNAELKQEIAELEWKIAQLKQ [4H454-bA]

interaction score [3]: -1.93
interaction score [4]: -0.0537
interaction score ([5]; mean of both orientations): -1.59
interaction score [6]: -0.39
interaction score [7]: -1.61
interaction score [8]: -1.12
interaction score [9]: -1.17
interaction score [10]: -1.36
interaction score [11]: -1.49
interaction score [42]: -2.03
interaction score [12]: -1.85
interaction score [13]: 2.09
interaction score [14]: -1.56
interaction score [43]: -0.853
interaction score ([15]; mean of both orientations): 1.06
Binder: DKIAALKAKNAALEAEIAALEAENAALEG [4H2947-AA]

interaction score [44]: -0.615
interaction score [45]: -1.47
interaction score [46]: -0.0778
interaction score [47]: -0.249
interaction score [48]: 0.422
Binder: DKNAALKAKIAALKAKIAALEAENAALKG [4H3940-AA]

interaction score [49]: -1.19
interaction score [50]: -1.37
interaction score [51]: -1.31
interaction score [52]: -1.44
interaction score [53]: -1.26
interaction score [54]: -1.42
interaction score [55]: -1.47
interaction score [56]: -0.726
interaction score [57]: -1.58
interaction score [58]: -1.29
interaction score [59]: -1.51
Binder: DKNAALKAELAAIEAELAAIEAKLAANKG [APC5009-AA]

interaction score [4]: -0.818
interaction score [60]: -1.09
interaction score [61]: -1.31
interaction score [7]: -0.187
interaction score [9]: -0.842
interaction score [62]: 1.47
interaction score [63]: -1.42
interaction score [64]: -1.23
interaction score [14]: 0.922
interaction score [65]: -0.215
interaction score [66]: 0.796
Binder: DKNAALEAKIAALKAENAALEAKIAALKG [4H3414-AA]

Reference: publication PMC10397247
